The results in this text go back to paper PMC8963248, “Natural Human Immunity Against Staphylococcal Protein A Relies on Effector Functions Triggered by IgG3” (Frontiers in Immunology, 2022).

The labels stand for the following.
B1: anti-SpA monoclonal antibody mAb-3 in IgG3 scaffold (antibody, V domains shown)
VH: QVQLVQSGAEVKKPGASVKVSCKASGYTFSHYYMHWVRQAPGQGLEWMGIINPRYGSTSYAQKFQGRVTMTRDTSTSTVYMELSSLRSEDTAVYYCARDGEVGARDLGWFDPWGQGTLVTVSS
VL: EIVLTQSPATLSVSPGERATLSCRASQSVSSNLAWYQQKPGQAPRLLIYGASTRATGIPARFSGSGSGTEFTLTISSLQSEDFAVYYCQQYTPLPWTFGGGTKVEIK
notes: heavy variable region; human IgG3 scaffold (heavy constant region); light chain; IgG3; also called IgG3 mAb-3; source: Expi293, transient transfection, purified (protein G)
B2: anti-SpA monoclonal antibody mAb-1 in IgG3 scaffold (antibody, V domains shown)
VH: EVQLVESGGGLVQPGGSLRLSCAASGFTFSTYGMSWVRQAPGKGLEWVSSITGSGRSTFYADSVKGRFTISRDNSTNTLSLQMNSLRAEDTAVYYCARSPADIVTGYYPWWFDLWGQGTLVTVSS
VL: DIQMTQSPSSLSASIGDRVTITCRASQSINTYLNWYQQKPGKAPRLLIAGASSLQSGVPSRFSGSGSGTDFTLTISSLQPEDFATYYCQQANSFPLTFGQGTRLEIK
notes: heavy variable region; human IgG3 scaffold (heavy constant region); light chain; IgG3; also called IgG3 mAb-1; source: Expi293, transient transfection, purified (protein G)
B3: anti-SpA monoclonal antibody mAb-2 in IgG3 scaffold (antibody, V domains shown)
VH: QVQLVQSGAEVKKPGASVKVSCKASGYTFTRYYMHWVRQAPGQGLEWMGWINPPSGGTNYAQKFQGRVTMTRDTSTSTVYMELSSLRSEDTAVYYCARDPPMGQGMDVWGQGTLVTVSS
VL: EIVLTQSPATLSVSPGERATLSCRASQSISSYLNWYQQKPGQAPRLLIYAASSLQSGIPARFSGSGSGTEFTLTISSLQSEDFAVYYCQQSFVAPFTFGGGTKVEIK
notes: heavy variable region; human IgG3 scaffold (heavy constant region); light chain; IgG3; also called IgG3 mAb-2; source: Expi293, transient transfection, purified (protein G)

T1 sequence (P02976 37-485): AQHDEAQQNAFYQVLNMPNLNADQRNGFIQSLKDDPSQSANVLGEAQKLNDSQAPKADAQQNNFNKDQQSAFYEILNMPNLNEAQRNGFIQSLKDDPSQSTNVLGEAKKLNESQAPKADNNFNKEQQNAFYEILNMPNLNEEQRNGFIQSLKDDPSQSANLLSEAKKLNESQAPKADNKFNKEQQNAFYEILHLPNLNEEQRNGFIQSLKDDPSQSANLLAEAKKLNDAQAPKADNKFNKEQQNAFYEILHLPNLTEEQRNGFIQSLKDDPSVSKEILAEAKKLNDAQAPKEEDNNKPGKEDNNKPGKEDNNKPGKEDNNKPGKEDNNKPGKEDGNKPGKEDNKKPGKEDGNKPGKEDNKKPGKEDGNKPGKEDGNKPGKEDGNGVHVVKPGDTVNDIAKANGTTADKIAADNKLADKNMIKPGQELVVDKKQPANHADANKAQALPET

This assay has as its target T1, SpA wild type (Staphylococcal protein A, recombinant) (Staphylococcus aureus NCTC 8325, UniProt P02976, biotinylated (only for the beads of the phagocytosis assays); chemically coupled by amines to MagPlex beads in the Luminex assays).
T1 construct: Staphylococcal protein A (SpA) of S. aureus strain NCTC 8325, locus tag SAOUHSC_00069; In the functional rows on bacteria the SpA is that on S. aureus USA300 lac, not this recombinant protein; also called SpAwt
The assay can be described thus: Luminex bead displacement assay; SpAwt coupled to MagPlex beads, saturated with biotinylated human IgGs (8 µg/mL, 30 min, room temperature), washed, then incubated with serially diluted IgG3 mAbs 1-4 or IgG3 isotype control in PBS; remaining human IgGs revealed with streptavidin-PE. The conditions noted are these: both partners purified.
Consider B1, for which the binding result is reported as “binds”.

As for B2, the binding result is reported as “binds”. Consider B3, for which the binding result is “binds”.
